Measured values reported in patent US20220332829A1 (NANJING SANHOME PHARMACEUTICAL, published 2022).
Substitutions are numbered along the chain they refer to.

Tests used:
[1] = target: T1, B7-H3 on surface of tumor cell (786-0, MDA-MB-231, Raji-B7-H3 cells) (human, UniProt Q5ZPR3 29-534); experiment: cell-based or functional assay
T1 sequence (looked up): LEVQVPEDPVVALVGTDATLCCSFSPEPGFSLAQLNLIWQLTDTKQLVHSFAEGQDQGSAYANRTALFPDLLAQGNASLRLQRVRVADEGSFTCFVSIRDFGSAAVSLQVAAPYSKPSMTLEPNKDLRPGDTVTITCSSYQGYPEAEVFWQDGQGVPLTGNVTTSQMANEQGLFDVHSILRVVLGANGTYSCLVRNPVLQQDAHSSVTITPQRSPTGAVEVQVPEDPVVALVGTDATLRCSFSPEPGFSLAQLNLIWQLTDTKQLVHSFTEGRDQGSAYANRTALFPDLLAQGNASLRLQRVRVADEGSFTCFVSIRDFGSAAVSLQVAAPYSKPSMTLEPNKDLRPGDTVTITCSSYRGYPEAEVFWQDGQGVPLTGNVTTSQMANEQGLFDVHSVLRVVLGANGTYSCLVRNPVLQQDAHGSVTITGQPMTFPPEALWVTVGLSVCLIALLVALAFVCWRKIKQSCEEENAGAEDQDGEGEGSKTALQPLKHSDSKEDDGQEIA

[2] = target: T1, B7-H3 on surface of tumor cell (786-0, …); experiment: FACS on MDA-MB-231 cells
Protocol: (§1) The binding activity of antibodies to B7-H3 on the surface of tumor cells was analyzed by FACS. Mean fluorescence intensity (MFI) and EC₅₀ detected by FACS indicate the binding activity of the antibody to cells. After 786-0 and MDA-MB-231 cells were digested, they were resuspended in 2% FBS-PBS solution and counted. After raji-B7-H3 cells were collected, they were resuspended in 2% FBS-PBS and counted. The above cells were plated in a cell plate with 1×10⁵ cells per well. The anti-B7-H3 antibody of the present disclosure was used as the primary antibody and added to cell plates in gradient dilution starting from 20 μg/mL with a total of 8 concentrations: 20,000 ng/mL, […], 2,000 ng/mL, 400 ng/mL, 80 ng/mL, 16 ng/mL, 3.2 ng/mL, and 0.64 ng/mL respectively. The plates were incubated at 4° C. for 1 h with hBRCA84D as the positive control antibody. PE-Anti-Human IgG (Biolegend, Cat. No. 409303, 1.25 μl/well) was used as the secondary antibody, washed, and detected for the fluorescence intensity generated by the binding of the antibody to the cell surface by a flow cytometer.

[3] = target: T1, B7-H3 on surface of tumor cell (786-0, …); experiment: FACS on Raji-B7-H3 cells
Protocol: as §1

[4] = target: T1, B7-H3 on surface of tumor cell (786-0, …); experiment: FACS on 786-0 cells
Protocol: as §1

[5] = target: T2, human 4Ig-B7-H3-His protein (human, UniProt Q5ZPR3 29-466); experiment: Biacore X100 SPR, 4Ig-B7-H3-His coupled to CM5 chip, antibody injected
T2 construct: also called human B7-H3 protein
T2 sequence: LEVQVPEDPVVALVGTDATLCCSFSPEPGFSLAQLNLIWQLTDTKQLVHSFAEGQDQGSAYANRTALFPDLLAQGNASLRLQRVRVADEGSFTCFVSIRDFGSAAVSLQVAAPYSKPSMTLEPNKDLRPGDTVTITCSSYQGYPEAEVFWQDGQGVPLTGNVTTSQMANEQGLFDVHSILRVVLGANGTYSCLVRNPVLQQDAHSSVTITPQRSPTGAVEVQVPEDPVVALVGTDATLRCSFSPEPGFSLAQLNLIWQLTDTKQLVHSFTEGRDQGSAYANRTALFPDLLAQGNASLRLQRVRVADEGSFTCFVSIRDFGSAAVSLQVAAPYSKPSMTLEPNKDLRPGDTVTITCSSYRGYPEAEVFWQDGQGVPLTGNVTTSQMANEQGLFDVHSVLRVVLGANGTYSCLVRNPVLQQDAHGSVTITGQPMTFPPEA
Source text: The humanized anti-B7-H3 antibodies prepared in Example 4 were subjected to affinity assay by Biacore. The antigen 4Ig-B7-H3-His was first coupled to the surface of a CM5 chip (GE, Cat. No. BR100012), and the active groups of the uncoupled protein were blocked with ethanolamine. After the baseline was stable, the hu39-01, hu65-13, and hBRCA84D antibodies were respectively diluted in equal proportions. The diluted antibodies of each concentration were placed on the sample injection tray of the instrument in sequence, and the program was set to inject samples respectively.

B1: SHS007-95-CHI (antibody, V domains shown)
VH: EVKLVESGGELVKPGGSLKLSCAASGFTLSSYVMSWVRQTPEKRLEWVAAISRYGDPTNFPDNMRDRFTISRDNAKNTLSLQMSSLRSEDTALYFCARHHFDGTSWYFDVWGPGTTVTVSS
VL: EIVLTQSPALMAASPGERVTITCSVSSSISSIDLHWYQQKSGTFPKLWIYGTSNLASGVPVRFSGSGSGTSYSLTISTMEAEDAATYYCQQWSSFPLTFGSGTKLEIK
With B1 the “EC50 Ratio (ADCC, LDH method; EC50 of hBRCA84D divided by EC50 of the antibody; 786-0 target cells, human PBMC effectors)” value [1] was 11.4.

B2: SHS007-39-CHI (antibody, human IgG1, V domains shown)
VH: EVQLQQSGPELVKPGASVKISCKTSGYTFTEYTIHWMKQSHGKSLEWIGGLNPNTGGTTYNQKFKDKATLTVDKSSSTAYMALRSLTSEDSAVYYCARKGGWFFLDYWGQGTTLIVSS
VL: QIVLTQSPAIMSASPREKVTMTCSASSSVSYMHWYQQKSGTSPKRWIYDTSKLASGVPARFRGSGSGTSYSLTISNMEAEDAATYYCQQWSSNPPTFGGGTKVEIK
For B2, the “EC50 Ratio (ADCC, LDH method; EC50 of hBRCA84D divided by EC50 of the antibody; 786-0 target cells, human PBMC effectors)” value [1] was 212.

B3: SHS007-65-CHI (antibody, human IgG1, V domains shown)
VH: EVQLVESGGGLVKPGGSLKLSCAASGFTFSDYGIHWVRQAPEKGLEWVAYISSGSNTIYYADTVKGRFTISRDNAKNTLFLQMTSLRSEDTAIYYCATMVTRWFYYAMDYWGQGTSVTVSS
VL: B2 VL with R16G, H33Y, R62S, S75N, G99A, V103L, I105L
With B3 the “EC50 Ratio (ADCC, LDH method; EC50 of hBRCA84D divided by EC50 of the antibody; 786-0 target cells, human PBMC effectors)” value [1] was 18.6.

B4: SHS007-59-CHI (antibody, V domains shown)
VH: EVQLQQSGPELVKPGTSVKIPCKASGYTFTDYHMDWVKQSHGKSLEWIGDINPNNGGTIYNQKFKGKATLTVDKSSSTAYMELRGLTSEDTAVYYCARGGLHDYWGPGTTLTVSS
VL: DIVMTQSQKFMSTKVGDRVSITCKASQSVGTAVAWYQQKPGQSPKLLIYSTSNRYTGVPDRFTNNASGTDFTLTISNVQSADLADYFCQQYGNYPLTFGGGTKLEIK
B4 was tested, and the “EC50 Ratio (ADCC, LDH method; EC50 of hBRCA84D divided by EC50 of the antibody; 786-0 target cells, human PBMC effectors)” value [1] was 4.4.

B5: SHS007-51-CHI (antibody, V domains shown)
VH: EVQLVESGGDSVKPGGSLKLSCAASGFTFSSFGMSWVRQTPDKRLEWVATINSGDNYSYSPDSVKGRFTISRDNAKNILYLQMSSLKSEDTAMYYCARPHIFYYGSPAWFAYWGQGTLVTVSA
VL: DVVMTQTPLSLPVSLGDQASVSCRSRQSLVHSNGNTYLHWYLQRPGQSPKLLIYKVSNRFSGVPDRFSGSGSGTDFTLKISRVEAEDLGVYFCSQSTHVPLTFGAGTKLELK
In the case of B5, the “EC50 Ratio (ADCC, LDH method; EC50 of hBRCA84D divided by EC50 of the antibody; 786-0 target cells, human PBMC effectors)” value [1] is reported as 6.6.

B6: SHS007-72-CHI (antibody, V domains shown)
VH: QVQLVQSGPELKKPGETVKISCKASGYTFTNYGMYWVKQAPGEGLKWMGWINTHTGEPTYGDDFKGRFAFSLETPATIAFLEISILKNEDTATYFCARKSFGDFIYAMDFWGQGTSVTVSS
VL: DIQMTQTTSSLSASLGDRVTISCRASQDIGKYLNWYQQKPDGTVKLLIYYTSRLHLGVPSRFSGSGSGTDFSLTISNLEQEDTATYFCQQGTTLPPTFGGGTKVEIK
In the case of B6, the “EC50 Ratio (ADCC, LDH method; EC50 of hBRCA84D divided by EC50 of the antibody; 786-0 target cells, human PBMC effectors)” value [1] is reported as 7.1.

B7: hu65-13 (antibody, human IgG1, V domains shown)
VH: B3 VH with K13Q, K19R, E42G, A49S, T78S, F80Y, T84N, S88A, I93V, S116T
VL: EIVLTQSPATLSLSPGERATLSCSASSSVSYMYWYQQKPGQAPRRLIYDTSKLASGVPARFSGSGSGTDYTLTISSLEPEDFAVYYCQQWSSNPPTFGQGTKLEIK
notes: expressed in HEK293E; also called humanized anti-B7-H3 antibody hu65-13
In the case of B7, the EC50 [2] is reported as 0.14 µg/mL, the “Mean fluorescence intensity (MFI)” value [2] is reported as 151000 and the EC50 [3] is reported as 0.266 µg/mL. The “Mean fluorescence intensity (MFI)” value [3] was 566000, the EC50 [4] was 0.266 µg/mL and the “Mean fluorescence intensity (MFI)” value [4] was 566000. For the same binder, the Kd [5] was 0.198 nM, the koff [5] was 1.89e-05 s⁻¹ and the kon [5] was 95400 M⁻¹ s⁻¹.

B8: SHS007-17-CHI (antibody, human IgG1, V domains shown)
VH: QVHLQQSGPELVKPGASVKMSCKASGFTFTDYVVSWVKQRTGQGLEWIGEIYPGGGFIHYNEKFKGKATLTADKSSNTAYMQLTSLTSEDSAVYFCARFPKYYFDYWGQGTTLTVSS
VL: DVVMTQTPLSLPVSLGDQASISCRSSQSIVHSNRYTYLEWYLQKPGQSLKLLIYGVSNRFSGVPDRFSGSGSGTDFTLKISRVEAEDMGVYYCFQSTLFPWTFGGGTKLEIK
For B8, the “EC50 Ratio (ADCC, LDH method; EC50 of hBRCA84D divided by EC50 of the antibody; 786-0 target cells, human PBMC effectors)” value [1] was 20.1.
